Laboratory results taken from US11572572B2, “A138T mutation-containing plant EPSPS mutant, and encoding gene and application thereof” (GEVOTO LLC, priority 2017, dated 2023).
Numbering of substitutions follows the chain as printed.

B1: R2: Oryza sativa EPSPS mutant having only the G111(96)A mutation (SEQ ID NO: 2), encoding gene SEQ ID NO: 16 (protein)
chain: MASNAAAAAAKAEEIVLQPIREISGAVQLPGSKSLSNRILLLSALSEGTTVVDNLLNSEDVHYMLEALKALGLSVEADKVAKRAVVVGCGGKFPVEKDAKEEVQLFLGNAATAMRPLTAAVTAAGGNATYVLDGVPRMRERPIGDLVVGLKQLGADVDCFLGTECPPVRVKGIGGLPGGKVKLSGSISSQYLSALLMAAPLALGDVEIEIIDKLISIPYVEMTLRLMERFGVKAEHSDSWDRFYIKGGQKYKSPGNAYVEGDASSASYFLAGAAITGGTVTVQGCGTTSLQGDVKFAEVLEMMGAKVTWTDTSVTVTGPPREPYGKKHLKAVDVNMNKMPDVAMTLAVVALFADGPTAIRDVASWRVKETERMVAIRTELTKLGASVEEGPDYCIITPPEKLNITAIDTYDDHRMAMAFSLAACADVPVTIRDPGCTRKTFPNYFDVLSTFVRN
modifications: Oryza sativa EPSPS mutant with only G111(96)A mutation
B2: R3: Oryza sativa EPSPS mutant II with G111(96)A and A155(138)T (SEQ ID NO: 7), encoding gene SEQ ID NO: 17 (protein)
chain: B1 chain with A155T
modifications: Oryza sativa EPSPS mutant with mutations G111(96)A and A155(138)T

Assays:
[1] = test system: double-knockout Escherichia coli strain (EDCE); assay: Growth of double-knockout E. coli (EDCE) transformed with Oryza sativa EPSPS genes in glyphosate media (Example 5); format: cell-based; details: for growth status of transformed Escherichia coli: Example 5, FIG. 1
Description: An Escherichia coli strain transformed with the Oryza sativa EPSPS mutant I-encoding gene according to Example 1 was used as Experimental Group 1 (having only the A155(138)T mutation).
An Escherichia coli strain transformed with the Oryza sativa EPSPS mutant II-encoding gene according to Example 2 was used as Experimental Group 3 (having the G111(96)A mutation and A155(138)T mutation).
An Escherichia coli strain transformed with a wild-type Oryza sativa EPSPS-encoding gene (SEQ ID NO: 14, encoding wild-type Oryza sativa EPSPS set forth in SEQ ID NO: 5) was used as a control group.
The glyphosate resistance of the Oryza sativa EPSPS mutant I-encoding gene and the encoded Oryza sativa EPSPS mutant I in Escherichia coli, and the glyphosate resistance of the Oryza sativa EPSPS mutant II-encoding gene and the encoded Oryza sativa EPSPS mutant II in Escherichia coli were verified by detecting the growth statuses of the transformed Escherichia coli in media containing different concentrations of glyphosate (0 mM, 1 mM, 2 mM, 20 mM) (media obtained by using M9 as a basal medium and then adding certain concentrations of antibiotics Spec (Spectinomycin), Gen (Gentamycin), and Amp (Ampicillin) and different concentrations of glyphosate).
Here, the Escherichia coli strain used was an double-knockout Escherichia coli strain (Escherichia coli strain DH5a from which an EPSPS gene and a C-P Lyase gene were knocked out, named EDCE, which may be prepared by a method with reference to Chinese Patent Application No. 2016103256926).
The detection was carried out by a method well known in the art, which was briefly described below. Gene encoding Oryza sativa EPSPS mutants was synthesized by a chemical synthesis method, wherein enzymatic digestion sites (Pacl and Sbfl) were introduced at both ends of the gene. The gene were enzymatically cleaved and then ligated in the presence of ligase to an expression vector (e.g., pADV5 vector having a structure as shown in FIG. 4) subjected to the same enzymatic digestion treatment, and then were transformed into the double-knockout Escherichia coli strain. After verification, positive clones were picked out and inoculated and grown in media containing glyphosate. The growth statuses were observed.

[2] = test system: transgenic rice seedlings; assay: Glyphosate resistance of EPSPS mutants in transgenic rice sprayed with glyphosate (Example 8); format: in vivo, rice (Nipponbare)
Description: The glyphosate resistance of the EPSPS mutants of the above examples in transgenic rice was detected by the following method.
Plasmids of monoclonal resistant strain comprising pADV5-EPSPS of Examples 1-4 (containing the EPSPS mutant genes) were extracted in accordance with a conventional method. They were subjected to double enzymatic digestion with Pacl and BstEII to recover small fragments, and then the small fragments were ligated, using T4 DNA ligase, to a pGVP1 vector subjected to double enzymatic digestion in the same manner, to obtain a pGVP1-EPSPS vector having a structure as shown in FIG. 8.
The pGVP1-EPSPS vector was transformed into EHA105 (Agrobacterium tumefaciens) competent cells, and single clones were picked out for colony PCR detection to obtain positive strains. Then, the positive strains were inoculated into and propagated in 1 mL of a YEP medium containing 50 μg·mL^−1 kanamycin and 50 μg·mL^−1 rifampicin, and stored at −80° C. or used in subsequent experiments.
400 ul of a strain containing the target gene vector stored at −80° C. was added to a culture dish with a solid medium containing YEP+50 μg/mL rifampicin+50 μg/mL kanamycin and cultured in the dark at 28° C. for 24 hours, and then the bacterium was added to an infection medium and adjusted to OD=0.2 as an infection solution.
Disinfection and Pre-culture: seeds of mature rice (Nipponbare) were manually dehulled. Full seeds with no bacterial plaques were selected and disinfected in accordance with the following steps: the seeds were placed in a 50 ml sterile centrifuge tube and disinfected with the added 70% ethanol in water for 30 seconds, ethanol solution was poured out, and the seeds were washed once with sterile water; 10 to 20 ml of 2.6% sodium hypochlorite solution was added to soak and disinfect the seeds for 20 minutes. The sodium hypochlorite solution was poured out, and the seeds were soaked and washed with sterile water for 6 or 7 times, for 3 minutes each time.
Induction and Subculture: the seeds were placed on and blotted with sterile filter paper, and the mature embryos were placed in an induction medium, with 12 embryos per dish. After the operation was completed, the culture dishes were sealed with parafilm and underwent culturing in the dark at 30° C. for 21 to 28 days. Callus tissue was transferred to a fresh medium and continued to be cultured for about 7 to 14 days. Spherical callus tissue with a dimension of 1 to 2 mm was taken as an infection receptor.
The callus tissue was placed into a centrifuge tube or culture cup, infected in the prepared Agrobacterium suspension added thereto for 10 minutes, and shaken several times during the period; the bacterial solution was poured out, the callus tissue was taken out and placed on sterile filter paper for absorbing the bacterial solution from its surface (for about 30 minutes); the callus tissue was placed on sterile filter paper in culture dishes and cultured in the dark at 25° C. for 2 or 3 days.
Recovery Culture: the co-cultured callus tissue was inoculated on a recovery medium and cultured in the dark at 30° C. for 5 to 7 days.
Primary Screening: the callus was transferred to screening medium 1 (51) and cultured in the dark at 30° C. for 14 days.
Secondary Screening: the callus was then transferred to screening medium 2 (S2) and cultured in the dark at 30° C. for 14 days.
Primary Differentiation: the screened resistant callus tissue was transferred to a differentiation medium and cultured for about 21 days at 30° C. under exposure to light for 19 hours.
Secondary Differentiation: new young shoots were selected and moved to a fresh differentiation medium and continued to be cultured for about 21 days.
When the new seedlings grew to about 2 cm, they were moved to a rooting medium and cultured for 3 to 4 weeks at 30° C. under exposure to light (for 16/8 h). […]

[3] = medium containing 1 mM glyphosate
[4] = medium containing 2 mM glyphosate
[5] = medium containing 20 mM glyphosate
[6] = 1X dose glyphosate (1,060 g/ha), day 10 after spraying
[7] = 2X dose glyphosate (2,120 g/ha) on survivors of 1X, after another 10 days
[8] = 5X dose glyphosate (5,300 g/ha) on survivors of 2X, after additional 10 days
[9] = 20X dose glyphosate (21,200 g/ha) on survivors of 5X, after further 10 days

Molecule | growth status of transformed Escherichia coli [1, 3] | growth status of transformed Escherichia coli [1, 4] | growth status of transformed Escherichia coli [1, 5] | % ++&+++ (percentage of moderately and highly glyphosate resistant plants in total plants observed) [2, 6] [%] | plant number with resistance + (low glyphosate resistant) [2, 6] | plant number with resistance ++ (moderately glyphosate resistant) [2, 6] | plant number with resistance +++ (highly glyphosate resistant) [2, 6] | % ++&+++ (percentage of moderately and highly glyphosate resistant plants in total plants observed) [2, 7] [%] | plant number with resistance + (low glyphosate resistant) [2, 7] | plant number with resistance ++ (moderately glyphosate resistant) [2, 7] | plant number with resistance +++ (highly glyphosate resistant) [2, 7] | plant number with resistance − (non-glyphosate resistant, withered or dead) [2, 7] | % ++&+++ (percentage of moderately and highly glyphosate resistant plants in total plants observed) [2, 8] [%] | plant number with resistance + (low glyphosate resistant) [2, 8] | plant number with resistance ++ (moderately glyphosate resistant) [2, 8] | plant number with resistance +++ (highly glyphosate resistant) [2, 8] | plant number with resistance − (non-glyphosate resistant, withered or dead) [2, 8] | % ++&+++ (percentage of moderately and highly glyphosate resistant plants in total plants observed) [2, 9] [%] | plant number with resistance + (low glyphosate resistant) [2, 9] | plant number with resistance ++ (moderately glyphosate resistant) [2, 9] | also measured
B1 | showed bacterial plaques | could not grow | could not grow | 69.2 | 2 | 1 | 8 | 61.5 | 2 | 2 | 6 | 3 | 46.2 | 2 | 3 | 3 | 5 | 15.4 | 4 | 1 | plant number with resistance +++ (highly glyphosate resistant) [2, 9]: 1; plant number with resistance − (non-glyphosate resistant, withered or dead) [2, 9]: 7
B2 | showed bacterial plaques | could grow normally | could grow normally | 70.8 | 1 | 9 | 25 | 66.7 | 0 | 4 | 28 | 16 | 50.0 | 0 | 13 | 11 | 24 | 22.9 | 7 | 7 | glyphosate concentration of medium in which the E. coli strain was kept in a growing state ([1]; Example 5): up to 20 mM; plant number with resistance +++ (highly glyphosate resistant) [2, 9]: 4; plant number with resistance − (non-glyphosate resistant, withered or dead) [2, 9]: 30
